Measured values: doi:10.1101/2021.07.30.454553 (bioRxiv, 2021)

Target: T1, full-length human kinesin-1 heavy chain (KIF5B) (human, UniProt P33176 1-963, LD555, LD655 or Alexa488 label (imaging assays))
T1 sequence (looked up): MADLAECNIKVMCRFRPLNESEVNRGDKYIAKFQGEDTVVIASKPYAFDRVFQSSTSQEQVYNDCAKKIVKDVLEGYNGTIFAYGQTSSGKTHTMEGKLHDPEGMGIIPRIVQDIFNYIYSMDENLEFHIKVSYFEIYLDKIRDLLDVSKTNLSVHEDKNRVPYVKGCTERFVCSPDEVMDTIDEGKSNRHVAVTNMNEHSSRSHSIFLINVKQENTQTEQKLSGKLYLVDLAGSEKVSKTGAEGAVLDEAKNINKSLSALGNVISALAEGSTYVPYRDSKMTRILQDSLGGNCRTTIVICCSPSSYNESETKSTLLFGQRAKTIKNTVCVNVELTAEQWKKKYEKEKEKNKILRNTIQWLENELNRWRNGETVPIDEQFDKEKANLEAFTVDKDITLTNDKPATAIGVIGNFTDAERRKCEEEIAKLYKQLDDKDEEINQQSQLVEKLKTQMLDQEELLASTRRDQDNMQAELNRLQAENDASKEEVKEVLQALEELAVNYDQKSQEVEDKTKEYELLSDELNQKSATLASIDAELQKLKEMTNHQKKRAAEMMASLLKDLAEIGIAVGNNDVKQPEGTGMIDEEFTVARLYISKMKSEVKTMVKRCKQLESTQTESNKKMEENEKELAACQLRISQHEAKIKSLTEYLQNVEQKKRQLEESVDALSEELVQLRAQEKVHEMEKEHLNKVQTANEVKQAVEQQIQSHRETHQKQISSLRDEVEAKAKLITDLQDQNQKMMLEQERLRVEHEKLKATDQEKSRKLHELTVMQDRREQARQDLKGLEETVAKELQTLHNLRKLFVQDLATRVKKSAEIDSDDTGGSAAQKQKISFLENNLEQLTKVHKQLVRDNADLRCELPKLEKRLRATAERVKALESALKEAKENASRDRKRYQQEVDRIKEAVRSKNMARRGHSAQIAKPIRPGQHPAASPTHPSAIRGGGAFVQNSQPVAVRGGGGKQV
Assay: single-molecule colocalisation on microtubules

B1: TRAK1^1-532 (domain or fragment, human, UniProt Q9UPV9 1-532, looked up)
chain: MALVFQFGQPVRAQPLPGLCHGKLIRTNACDVCNSTDLPEVEIISLLEEQLPHYKLRADTIYGYDHDDWLHTPLISPDANIDLTTEQIEETLKYFLLCAERVGQMTKTYNDIDAVTRLLEEKERDLELAARIGQSLLKKNKTLTERNELLEEQVEHIREEVSQLRHELSMKDELLQFYTSAAEESEPESVCSTPLKRNESSSSVQNYFHLDSLQKKLKDLEEENVVLRSEASQLKTETITYEEKEQQLVNDCVKELRDANVQIASISEELAKKTEDAARQQEEITHLLSQIVDLQKKAKACAVENEELVQHLGAAKDAQRQLTAELRELEDKYAECMEMLHEAQEELKNLRNKTMPNTTSRRYHSLGLFPMDSLAAEIEGTMRKELQLEEAESPDITHQKRVFETVRNINQVVKQRSLTPSPMNIPGSNQSSAMNSLLSSCVSTPRSSFYGSDIGNVVLDNKTNSIILETEAADLGNDERSKKPGTPGTPGSHDLETALRRLSLRRENYLSERRFFEEEQERKLQELAEKGE
modifications: LD555 dye on the SNAP tag (imaging assays)
- binding result: binds
